Primed or numbered codes have the meaning given here. The star is where a group is joined. Dabcyl′ = CN(C)c1ccc(/N=N/c2ccc(C(=O)*)cc2)cc1; EDANS = O=S(=O)(O)c1cccc2c(NCCN*)cccc12

Experimental findings from paper PMC3186789 are described below.

The target in this test is T1, Group B Streptococcus recombinant sortase A SrtA_(ΔN40) (Streptococcus agalactiae strain 515 (serotype Ia)) (UniProt Q8DZY1).
T1 sequence: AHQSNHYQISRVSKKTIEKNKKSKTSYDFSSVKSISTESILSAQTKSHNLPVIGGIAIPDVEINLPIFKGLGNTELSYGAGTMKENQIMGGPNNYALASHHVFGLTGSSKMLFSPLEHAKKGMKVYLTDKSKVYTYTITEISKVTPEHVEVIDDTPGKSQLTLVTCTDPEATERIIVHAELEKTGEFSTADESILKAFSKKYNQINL

B1: AP2-2a peptide (Dabcyl-SFLPKTGM-Edans) (peptide)
peptide: {Dabcyl′}-SFLPKTGM-{EDANS}
SMILES: CSCC[C@H](NC(=O)CNC(=O)[C@@H](NC(=O)[C@H](CCCCN)NC(=O)[C@@H]1CCCN1C(=O)[C@H](CC(C)C)NC(=O)[C@H](Cc1ccccc1)NC(=O)[C@H](CO)NC(=O)c1ccc(/N=N/c2ccc(N(C)C)cc2)cc1)[C@@H](C)O)C(=O)NCCNc1cccc2c(S(=O)(=O)O)cccc12
Consider B1, for which the apparent Michaelis constant K (m,app) of the transpeptidation reaction (FRET assay, 1-384 µM peptide, 3 µM SrtA (ΔN40), 75 mM triglycine, 37°C, 20 mM HEPES pH 7.5) is 48.4 µM.
